The target of the data set is CDK4 (UniProt P11802).
Chain of CDK4 (P11802 2-303): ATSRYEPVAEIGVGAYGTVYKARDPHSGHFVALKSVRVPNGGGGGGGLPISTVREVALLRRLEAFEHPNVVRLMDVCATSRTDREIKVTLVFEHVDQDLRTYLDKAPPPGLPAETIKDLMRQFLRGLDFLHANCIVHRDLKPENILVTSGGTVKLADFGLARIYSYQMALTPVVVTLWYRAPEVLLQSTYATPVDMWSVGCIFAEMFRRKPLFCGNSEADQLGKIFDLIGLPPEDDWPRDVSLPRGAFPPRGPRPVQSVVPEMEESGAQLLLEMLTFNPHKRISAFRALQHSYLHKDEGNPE

With JNK, the “phosphorylation of CDK4 at Thr-172 (immunoblot)” value was “JNK phosphorylated T172 of CDK4 2 hours after serum stimulation”.
